Residue numbers refer to the chain shown, from its start. Numbers in names are those of the source.
B1: GST-tagged Runx1 (residue 371-451) (domain or fragment, mouse, UniProt Q03347 371-451, looked up)
chain: GSPSYHLYYGASAGSYQFSMVGGERSPPRILPPCTNASTGAALLNPSLPSQSDVVETEGSHSNSPTNMPPARLEEAVWRPY
notes: cloned into pGEX-6P-1; also called Runx1^ΔN; source: E. coli BL21(DE3), purified (Ni-NTA, Superdex 200)
B2: NusA-tagged FoxP3^forkhead (domain or fragment, mouse, UniProt Q99JB6 336-423, looked up)
chain: MRPPFTYATLIRWAILEAPERQRTLNEIYHWFTRMFAYFRNHPATWKNAIRHNLSLHKCFVRVESEKGAVWTVDEFEFRKKRSQRPNK
notes: FoxP3, mouse, forkhead domain, residues 336-423; NusA (60 kDa) kept for SEC-MALS; also called isolated FoxP3 forkhead; source: E. coli BL21(DE3), purified (Ni-NTA, Superdex 200), HRV3C cleavage omitted; not shown: His6, N-terminal, kept; NusA, N-terminal, kept
B3: FoxP3^forkhead C394S T368C (swap dimer-specific X-linking construct) (domain or fragment, mouse, UniProt Q99JB6 336-423, looked up)
chain: B2 chain with T33C, C59S
notes: FoxP3, mouse, forkhead, residues 336-423 with C394S and T368C; source: E. coli BL21(DE3), purified (Ni-NTA, HRV3C cleavage, Superdex 75); not shown: His6, N-terminal, cleaved; NusA, N-terminal, cleaved
B4: NusA-tagged FoxP3^ΔN (domain or fragment, mouse, UniProt Q99JB6 188-423, looked up)
chain: GSYPLLANGVCKWPGCEKVFEEPEEFLKHCQADHLLDEKGKAQCLLQREVVQSLEQQLELEKEKLGAMQAHLAGKMALAKAPSVASMDKSSCCIVATSTQGSVLPAWSAPREAPDGGLFAVRRHLWGSHGNSSFPEFFHNMDYFKYHNMRPPFTYATLIRWAILEAPERQRTLNEIYHWFTRMFAYFRNHPATWKNAIRHNLSLHKCFVRVESEKGAVWTVDEFEFRKKRSQRPNK
notes: FoxP3, mouse, ZF, CC, RBR and forkhead, residues 188-423; source: E. coli BL21(DE3), purified (Ni-NTA, Superdex 200), HRV3C cleavage omitted; not shown: His6, N-terminal, kept; NusA, N-terminal, kept
B5: NusA-tagged FoxP3^RBR-forkhead R337Q (domain or fragment, mouse, UniProt Q99JB6 284-423, looked up)
chain: TSTQGSVLPAWSAPREAPDGGLFAVRRHLWGSHGNSSFPEFFHNMDYFKYHNMQPPFTYATLIRWAILEAPERQRTLNEIYHWFTRMFAYFRNHPATWKNAIRHNLSLHKCFVRVESEKGAVWTVDEFEFRKKRSQRPNK
notes: FoxP3, mouse, RBR-forkhead, residues 284-423 with the IPEX mutation R337Q; R337Q is a mutation of human IPEX patients, here put into the mouse protein; also called R337Q FoxP3^RBR-forkhead; FoxP3^RBR-forkhead with R337Q; source: E. coli BL21(DE3), purified (Ni-NTA, Superdex 200), HRV3C cleavage omitted; not shown: His6, N-terminal, kept; NusA, N-terminal, kept
B6: NusA-tagged FoxP3^RBR-forkhead Y373V (domain or fragment, mouse, UniProt Q99JB6 284-423, looked up)
chain: B5 chain with Q54R, Y90V
notes: FoxP3, mouse, RBR-forkhead, residues 284-423 with the IPEX mutation Y373V; Y373V is a mutation of human IPEX patients, here put into the mouse protein; also called Y373V FoxP3^RBR-forkhead; source: E. coli BL21(DE3), purified (Ni-NTA, Superdex 200), HRV3C cleavage omitted; not shown: His6, N-terminal, kept; NusA, N-terminal, kept

Experiments:
[1] = molecular target: T1, MBP-tagged FoxP3^RBR-forkhead (mouse, UniProt Q99JB6 284-423); assay: pull-down; MBP pull-down: MBP-FoxP3^RBR-forkhead 1 μM with GST-Runx1(371-451) 0.5 μM, with or without 2 μM DNA (IR-FKHM^4g or single FKHM), 30 min at room temperature in RIPA buffer; details: both partners purified
T1 construct: FoxP3, mouse, RBR-forkhead, residues 284-423; cloned into a modified pMAL-c2 vector; also called MBP-FoxP3^RBR-forkhead; His6-MBP fused FoxP3^RBR-forkhead; source: E. coli BL21(DE3), purified (Ni-NTA, Superdex 200)
T1 sequence (looked up): B5 chain with Q54R

[2] = molecular target: the molecule itself; assay: SEC-MALS; NusA-fused proteins on Superdex 200 Increase 10/300; 20 mM Tris pH 7.5, 500 mM NaCl, 2 mM DTT; miniDAWN MALS and Optilab dRI detectors
[3] = molecular target: the molecule itself; assay: cross-linking; 2 μM FoxP3^forkhead with 100 μM BMOE in 1x PBS, 1 h at 25°C, quenched with 10 mM DTT; SDS-PAGE, Krypton stain

Binder	stoichiometry N [2]	also measured
B1	–	binding result [1]: binds
B2	2	–
B3	–	binding result [3]: binds
B4	2	–
B5	2	–
B6	4	–
